The values below come from patent publication US20070160576A1, “IL-17A/F heterologous polypeptides and therapeutic uses thereof” (Genentech, Inc., priority 2001, published 2007).

Assay [1] has as its target T1, human IL-17 receptor (IL-17R, PRO1) as tested in the receptor/ligand screen (human, UniProt Q96F46 33-320, limits assumed).
T1 construct: also called IL-7R (as misprinted)
Kind of assay: receptor/ligand screen, FIG. 14. The source says:
A PRO polypeptide of the present invention suspected of being a ligand for a receptor is expressed as a fusion protein containing the Fc domain of human IgG (an immunoadhesin). Receptor-ligand binding is detected by allowing interaction of the immunoadhesin polypeptide with cells (e.g. Cos cells) expressing candidate PRO polypeptide receptors and visualization of bound immunoadhesin with fluorescent reagents directed toward the Fc fusion domain and examination by microscope. Cells expressing candidate receptors are produced by transient transfection, in parallel, of defined subsets of a library of cDNA expression vectors encoding PRO polypeptides that may function as receptor molecules. Cells are then incubated for 1 hour in the presence of the PRO polypeptide immunoadhesin being tested for possible receptor binding. The cells are then washed and fixed with paraformaldehyde. The cells are then incubated with fluorescent conjugated antibody directed against the Fc portion of the PRO polypeptide immunoadhesin (e.g. FITC conjugated goat anti-human-Fc antibody). The cells are then washed again and examined by microscope. A positive interaction is judged by the presence of fluorescent labeling of cells transfected with cDNA encoding a particular PRO polypeptide receptor or pool of receptors and an absence of similar fluorescent labeling of similarly prepared cells that have been transfected with other cDNA or pools of cDNA. If a defined pool of cDNA expression vectors is judged to be positive for interaction with a PRO polypeptide immunoadhesin, the individual cDNA species that comprise the pool are tested individually (the pool is “broken down”) to determine the specific cDNA that encodes a receptor able to interact with the PRO polypeptide immunoadhesin.
In another embodiment of this assay, an epitope-tagged potential ligand PRO polypeptide (e.g., 8 histidine “His” tag) is allowed to interact with a panel of potential receptor PRO polypeptide molecules that have been expressed as fusions with the Fc domain of human IgG (immunoadhesins). Following a 1 hour co-incubation with the epitope tagged PRO polypeptide, the candidate receptors are each immunoprecipitated with protein A beads and the beads are washed. Potential ligand interaction is determined by Western blot analysis of the immunoprecipitated complexes with antibody directed towards the epitope tag.

The subject of assay [2] is TK-10 cells. Kind of assay: IL-8 and IL-6 production in TK-10 cells (ELISA of conditioned media). It is filed as cell-based, human. To be noted: TK-10 cells, 24 hours, IL-8 ELISA. Here is the method: Fractions were tested by incubation with TK-10 cells for 24 hours (0.033 microliters fraction/ml of cell culture media). Conditioned media was then collected and IL-8 and IL-6 concentration measurements were performed on each fraction by ELISA. […] Gels, blots, amino acid sequence and activity assays were run on this fraction (FIG. 3). Alternatively, fraction 31 and the remaining volume of fraction 32, from the HiLoad S Sepharose run were pooled and dialyzed against Buffer A for eight hours using a 10 kD cutoff membrane and passed through a 0.2 micron filter. […] Fractions 26-43 were assayed and protein concentrations were determined by amino acid analysis. Pure IL-17A/F was identified in fractions 31-33 as a single protein with apparent molecular mass of 30-35 kD. The concentrations of fractions 31, 32 and 33 were 0.258, 0.359 and 0.291 mg/ml respectively.
IL-17A/F, IL-17 and IL-17F were incubated with TK-10 cells at the indicated concentrations for 24 hours.
TK-10 conditioned media was collected and analyzed by IL-8 ELISA and IL-6 ELISA.
On the technique in general: In an ELISA, binding on a coated surface is turned into a signal by an enzyme label.

The target in assay [3] is T2, IL-17RH1 (PRO5801) (Homo sapiens, UniProt Q9NRM6).
T2 construct: the extracellular domains (ECDs) of either of the two receptors IL-17R (designated PRO1) and IL-17RH1 (PRO5801)
T2 sequence (Q9NRM6 18-292 limits assumed): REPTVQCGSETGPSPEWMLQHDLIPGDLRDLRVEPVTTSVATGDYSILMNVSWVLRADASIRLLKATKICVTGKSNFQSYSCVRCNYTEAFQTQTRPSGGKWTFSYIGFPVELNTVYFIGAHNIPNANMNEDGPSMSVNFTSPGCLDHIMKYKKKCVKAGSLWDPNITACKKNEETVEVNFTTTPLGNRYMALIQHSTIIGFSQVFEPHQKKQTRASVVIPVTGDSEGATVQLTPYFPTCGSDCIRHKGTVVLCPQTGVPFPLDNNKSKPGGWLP
Briefly: SPR (BIAcore) binding measurements. To be noted: IL-17RH1 up to 0.5 ┘M. How it is done:
(§1) The kinetics and affinity of IL-17, IL-17E (PRO10272), or IL-17F (PRO20110) binding to IL-17R or IL-17RH1 (PRO5801) were determined by SPR measurements on a Pharmacia BIAcore 1000 instrument (Phamacia Biosensor, Piscataway N.J.). IL-17 ligand or receptor was immobilized onto a flow cell of a CM5 sensor chip via random coupling to amino groups, N-hydroxysuccinimide chemistry, by using a protocol developed by the manufacturer. An immobilization level of about 500 resonance units (RU) was obtained for IL-17R, IL-17RH1, and IL-17F, whereas IL-17 and IL-17E immobilization levels were 1200 and 1500 RU, respectively. A strong signal was obtained for IL-17R binding to immobilized IL-17. […] After blocking unreacted sites with ethanolamine, binding measurements were performed using a flow rate of 25 ┘L/min. Sensorgrams-were obtained for a series of six, two-fold serially diluted protein solutions. The highest concentration used was 1000 or 500 nM protein and the solutions were prepared in the running buffer, PBS containing 0.05% Tween-20. The sensor chip surface was regenerated between binding cycles by injection of a 25 ┘L aliquot of 0.1 M acetic acid, 0.2 M NaCl, pH 3 to elute non-covalent bound protein. Sensorgrams were evaluated according to a 1:1 binding model by non-linear regression analysis using software supplied by the manufacturer. In separate experiments to measure competition between IL-17 variants for binding receptors, a fixed concentration of receptor was incubated with a varied concentration of IL-17 protein followed by injection of this mixture onto a flow cell having immobilized IL-17 protein. The amount of bound receptor was determined from the resonance signal obtained after completion of the association phase.
(In general: In SPR one partner is held on a chip, and binding of the other changes the refractive index at the surface.)

Assay [4] has as its target T3, IL-17R (Homo sapiens, UniProt Q96F46).
T3 construct: the extracellular domains (ECDs) of either of the two receptors IL-17R (designated PRO1) and IL-17RH1 (PRO5801)
Kind of assay: SPR (BIAcore) binding measurements. To be noted: IL-17R up to 1 ┘M. How it is done:
as §1

Assay [5] deals with T3, IL-17R. Kind of assay: SPR competition for receptor binding to immobilized IL-17. To be noted: IL-17R 500 nM; IL-17F at 2 ┘M. Here is the method:
as §1, with “The sensor chip surface was regenerated between binding cycles by injection of a 25 ┘L aliquot of 0.1 M acetic acid, 0.2 M NaCl, pH 3 to elute non-covalent bound protein.” left out, “In separate experiments to measure competition between IL-17 variants for binding receptors, a fixed concentration of receptor was incubated with a varied concentration of IL-17 protein followed by injection of this mixture onto a flow cell having immobilized IL-17 protein.” left out, “phase. […]” for “phase.”

Assay [6] concerns the target T4, IL-17RH1 (Homo sapiens, UniProt Q9NRM6).
T4 construct: the extracellular domains (ECDs) of either of the two receptors IL-17R (designated PRO1) and IL-17RH1 (PRO5801)
T4 sequence (Q9NRM6 18-292 limits assumed): T2 sequence (Q9NRM6 18-292 limits assumed)
Briefly: SPR competition for receptor binding to immobilized IL-17E. To be noted: IL-17RH1 31 nM; IL-17F at 1.3 ┘M. Here is the method:
as §1, with “The sensor chip surface was regenerated between binding cycles by injection of a 25 ┘L aliquot of 0.1 M acetic acid, 0.2 M NaCl, pH 3 to elute non-covalent bound protein.” left out, “In separate experiments to measure competition between IL-17 variants for binding receptors, a fixed concentration of receptor was incubated with a varied concentration of IL-17 protein followed by injection of this mixture onto a flow cell having immobilized IL-17 protein.” left out, “phase. […]” for “phase.”

B1: PRO21175 (IL-17D ligand) (ligand, UniProt Q8TAD2 16-202, looked up)
chain: AGAPRAGRRPARPRGCADRPEELLEQLYGRLAAGVLSAFHHTLQLGPREQARNASCPAGGRPADRRFRPPTNLRSVSPWAYRISYDPARYPRYLPEAYCLCRGCLTGLFGEEDVRFRSAPVYMPTVVLRRTPACAGGRSVYTEAYVTIPVGCTCVPEPEKDADSINSSIDKQGAKLLLGPNDAPAGP
Consider B1, for which the binding result in assay [1] is “no binding”.

B2: IL-17F: human IL-17F ligand, SEQ ID NO:4 (protein, listed as Homo sapiens)
chain: MTVKTLHGPAMVKYLLLSILGLAFLSEAAARKIPKVGHTFFQKPESCPPVPGGSMKLDIGIINENQRVSMSRNIESRSTSPWNYTVTWDPNRYPSEVVQAQCRNLGCINAQGKEDISMNSVPIQQETLVVRRKHQGCSVSFQLEKVLVTVGCTCVTPVIHHVQ
Turning to B2, the IL-8 production result in assay [2] was “production of IL-8”. In addition, in assay [3], the “binding of IL-17RH1 to immobilized IL-17F” value was “no binding”. In addition, in assay [4], the “binding of IL-17R to immobilized IL-17F” value is listed as “no binding”. Also, the “competition for binding of IL-17R to immobilized IL-17” value in assay [5] is reported as “no competition”. Moreover, the “competition for binding of IL-17RH1 to immobilized IL-17E” value in assay [6] was “could not block binding”.
